Here are results for one protein from patent US20080279844.

In the data set the target is T1, IκBα, P25963.
T1 chain: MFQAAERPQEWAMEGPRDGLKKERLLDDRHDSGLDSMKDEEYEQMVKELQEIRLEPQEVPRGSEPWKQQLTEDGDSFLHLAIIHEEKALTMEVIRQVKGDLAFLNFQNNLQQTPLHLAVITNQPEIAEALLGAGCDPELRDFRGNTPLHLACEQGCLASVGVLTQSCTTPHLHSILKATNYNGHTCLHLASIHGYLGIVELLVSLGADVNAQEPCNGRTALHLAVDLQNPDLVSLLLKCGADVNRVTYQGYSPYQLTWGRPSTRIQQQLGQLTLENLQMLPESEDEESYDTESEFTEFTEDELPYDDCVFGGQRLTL

B1: Tissue transglutaminase (TG2, EC 2.3.2.13) (protein)
chain: AEELVLERCDLELETNGRDHHTADLCREKLVVRRGQPFWLTLHFEGRNYEASVDSLTFSVVTGPAPSQEAGTKARFPLRDAVEEGDWTATVVDQQDCTLSLQLTTPANAPIGLYRLSLEASTGYQGSSFVLGHFILLFNAWCPADAVYLDSEEERQEYVLTQQGFIYQGSAKFIKNIPWNFGQFEDGILDICLILLDVNPKFLKNAGRDCSRRSSPVYVGRVVSGMVNCNDDQGVLLGRWDNNYGDGVSPMSWIGSVDILRRWKNHGCQRVKYGQCWVFAAVACTVLRCLGIPTRVVTNYNSAHDQNSNLLIEYFRNEFGEIQGDKSEMIWNFHCWVESWMTRPDLQPGYEGWQALDPTPQEKSEGTYCCGPVPVRAIKEGDLSTKYDAPFVFAEVNADVVDWIQQDDGSVHKSINRSLIVGLKISTKSVGRDEREDITHTYKYPEGSSEEREAFTRANHLNKLAEKEETGMAMRIRVGQSMNMGSDFDVFAHITNNTAEEYVCRLLLCARTVSYNGILGPECGTKYLLNLNLEPFSEKSVPLCILYEKYRDCLTESNLIKVRALLVEPVINSYLLAERDLYLENPEIKIRILGEPKQKRKLVAEVSLQNPLPVALEGCTFTVEGAGLTEEQKTVEIPDPVEAGEEVKVRMDLLPLHMGLHKLVVNFESDKLKAVKGFRNVIIGPA
Regarding B1, the “in vitro BPA labeling of IκBα immunoprecipitates in the presence of Ca2+ (3 mM), probed with horseradish peroxidase-conjugated streptavidin” value was “demonstrated the presence of high-molecular-weight forms (dimeric and polymeric) of IκBα”.
